Target: T1, Human FcRn-GST protein (human, UniProt P55899 24-297; P61769 21-119, limits assumed)
T1 construct: not shown: GST tag
Experiment: ELISA at pH 6.0: fusion protein coated on the plate, Human FcRn-GST titrated (x axis, ug/ml), anti-GST Ab-HRP, A450
Protocol: To investigate the binding affinity of the PF1802_M020, M021, and M022 substances, obtained by introducing three types of blood half-life-increasing Fc to the PF1802-M008 candidate substance, to human FcRn, ELISA was performed, and to investigate the difference in binding affinity depending on pH, two situations at pH 6.0 and pH 7.4 were prepared, respectively. Specifically, each of the PF1802_M020, M021, and M022 substances was coated at 4 μg/mL on a 96 well immunoplate, and reacted with PBS (pH 6.0 and 7.4) containing 4% skim milk at room temperature for 1 hour to block non-specific binding. Thereafter, the Human FcRn-GST protein was diluted 4-fold from a maximum concentration of 5 μg/mL to 0.0003 μg/mL using PBS (pH 6.0, 7.4) containing 1% skim milk, and then dispensed into each well, followed by incubation at room temperature for 1 hour.

Row | EC50 (read off the curve) [µg/mL] | Binder
1 | ~0.03 | PF1802_M021 (GLP1-Fc-mut.IGF1) (Fc fusion, M008 with a half-life-increasing Fc: N297A, L309E, Q311M, M428L) HGEGTFTSDVSSYLEEQAAKEFIAWLVKGGGGSAPAPGGGGSDKTHTCPPCPAPELLGGPSVFLFPPKPKDTLMISRTPEVTCVVVDVSHEDPEVKFNWYVDGVEVHNAKTKPREEQYASTYRVVSVLTVEHMDWLNGKEYKCKVSNKALPAPIEKTISKAKGQPREPQVYTLPPSREEMTKNQVSLTCLVKGFYPSDIAVEWESNGQPENNYKTTPPVLDSDGSFFLYSKLTVDKSRWQQGNVFSCSVLHEALHNHYTQKSLSLSPGKGGGGSGGGGSGGGGSGGGGSGAHSGPATLCGAELVDALQFVCGDRGFYFNKPTGYGSSSRRAPQTGIVDECCARSCDLRRLEMYCAPLKPTKST
2 | ~0.04 | PF1802_M020 (GLP1-Fc-mut.IGF1) (Fc fusion, M008 with a half-life-increasing Fc: N297A, L309Y, Q311M, M428L) HGEGTFTSDVSSYLEEQAAKEFIAWLVKGGGGSAPAPGGGGSDKTHTCPPCPAPELLGGPSVFLFPPKPKDTLMISRTPEVTCVVVDVSHEDPEVKFNWYVDGVEVHNAKTKPREEQYASTYRVVSVLTVYHMDWLNGKEYKCKVSNKALPAPIEKTISKAKGQPREPQVYTLPPSREEMTKNQVSLTCLVKGFYPSDIAVEWESNGQPENNYKTTPPVLDSDGSFFLYSKLTVDKSRWQQGNVFSCSVLHEALHNHYTQKSLSLSPGKGGGGSGGGGSGGGGSGGGGSGAHSGPATLCGAELVDALQFVCGDRGFYFNKPTGYGSSSRRAPQTGIVDECCARSCDLRRLEMYCAPLKPTKST
3 | ~0.03 | PF1802_M022 (GLP1-Fc-mut.IGF1) (Fc fusion, M008 with a half-life-increasing Fc: N297A, L309E, Q311W, M428L) HGEGTFTSDVSSYLEEQAAKEFIAWLVKGGGGSAPAPGGGGSDKTHTCPPCPAPELLGGPSVFLFPPKPKDTLMISRTPEVTCVVVDVSHEDPEVKFNWYVDGVEVHNAKTKPREEQYASTYRVVSVLTVEHWDWLNGKEYKCKVSNKALPAPIEKTISKAKGQPREPQVYTLPPSREEMTKNQVSLTCLVKGFYPSDIAVEWESNGQPENNYKTTPPVLDSDGSFFLYSKLTVDKSRWQQGNVFSCSVLHEALHNHYTQKSLSLSPGKGGGGSGGGGSGGGGSGGGGSGAHSGPATLCGAELVDALQFVCGDRGFYFNKPTGYGSSSRRAPQTGIVDECCARSCDLRRLEMYCAPLKPTKST

Reference: US20250289861A1 (IMMUNOFORGE, published 2025)
